{"source": "paper PMC7414852", "test_in_all_cases": "cryo-EM structure", "key": {"[1]": {"target": "Trypsin-activated Vip3Aa16 toxin (cleaved at K198, both fragments kept together) (Bacillus thuringiensis)"}, "[2]": {"target": "Vip3Aa16 N-terminal trypsin fragment (domain I, to K198) (Bacillus thuringiensis)"}, "[3]": {"target": "Vip3Aa16 protoxin (Vegetative Insecticidal Protein 3Aa from Bacillus thuringiensis), residues 10-789 (Bacillus thuringiensis)"}}, "data": [{"substance": "Trypsin-activated Vip3Aa16 toxin (cleaved at K198, both fragments kept together) (complex)", "values": [{"measurement": "stoichiometry N", "setting": "[1]", "result": 4}]}, {"substance": "Vip3Aa16 N-terminal trypsin fragment (domain I, to K198) (domain or fragment)", "values": [{"measurement": "stoichiometry N", "setting": "[2]", "result": 4}]}, {"substance": "Vip3Aa16 protoxin (Vegetative Insecticidal Protein 3Aa from Bacillus thuringiensis), residues 10-789 (natural protein)", "values": [{"measurement": "stoichiometry N", "setting": "[3]", "result": 4}]}]}
